Experiment [1] has as its target SARS-CoV-2 spike, Gamma variant (P.1), on virus or pseudotyped particles (SARS-CoV-2). The experiment in a line: cell-based or functional assay.
Experiment [2] concerns the target SARS-CoV-2 spike, Beta variant (B.1.351), on virus or pseudotyped particles (SARS-CoV-2). Nature of the experiment: cell-based or functional assay.
The target of experiment [3] is T1, SARS-CoV-2 spike, Delta variant (B.1.617.2), on virus or pseudotyped particles (SARS-CoV-2). Nature of the experiment: cell-based or functional assay.
Experiment [4] deals with T2, SARS-CoV-2 delta variant B.1.617.2/3 RBD domain (SARS-CoV-2). The experiment in a line: RBD-ACE2 competition ELISA. For orientation: An ELISA detects its analyte on a solid surface through an enzyme-linked reagent.
For experiment [5], the target named is SARS-CoV-2 RBD (B.1.1.7) domain (SARS-CoV-2). The experiment in a line: ELISA. The arrangement: unit not given beside the values.
In experiment [6] the target is SARS-CoV-2 RBD (B.1.351) domain (SARS-CoV-2). Nature of the experiment: ELISA. The arrangement: unit not given beside the values.
For experiment [7], the target named is T3, SARS-CoV-2 Spike ectodomain (tri-S), Wuhan (SARS-CoV-2, UniProt P0DTC2 14-1208). Nature of the experiment: ELISA. On the set-up: unit not given beside the values.
The target in experiment [8] is SARS-CoV-2 RBD (P.1) domain (SARS-CoV-2). The experiment in a line: ELISA. On the set-up: unit not given beside the values.
Experiment [9] concerns the target T4, SARS-CoV-2 kappa variant B.1.617.1/3 RBD domain (SARS-CoV-2). The experiment in a line: ELISA. The arrangement: unit not given beside the values.
For experiment [10], the target named is SARS-CoV-2 delta plus variant RBD (SARS-CoV-2). The experiment in a line: ELISA. The arrangement: unit not given beside the values.
The target in experiment [11] is T2, SARS-CoV-2 delta variant B.1.617.2/3 …. The experiment in a line: ELISA. The arrangement: unit not given beside the values.
The target in experiment [12] is SARS-CoV-2 RBD (B.1.351) domain (SARS-CoV-2). Nature of the experiment: ELISA. On the set-up: unit not given beside the values. This is another data set of the same source.
Experiment [13] deals with SARS-CoV-2 omicron variant B.1.1.529 Spike ectodomain (tri-S, HexaPro) (SARS-CoV-2, UniProt P0DTC2 14-1208). Nature of the experiment: ELISA. On the set-up: unit not given beside the values.
Experiment [14] concerns the target SARS-CoV-2 omicron variant B.1.1.529 RBD domain (SARS-CoV-2). Nature of the experiment: ELISA. On the set-up: unit not given beside the values.
Experiment [15] concerns the target SARS-CoV-2 RBD (B.1.1.7) domain (SARS-CoV-2). Nature of the experiment: RBD-ACE2 competition ELISA. On the set-up: unit not given beside the values.
The target in experiment [16] is SARS-CoV-2 RBD (B.1.351) domain (SARS-CoV-2). The experiment in a line: RBD-ACE2 competition ELISA. On the set-up: unit not given beside the values.
Experiment [17] deals with SARS-CoV-2 RBD (P.1) domain (SARS-CoV-2). Nature of the experiment: RBD-ACE2 competition ELISA. On the set-up: unit not given beside the values.
Experiment [18] addresses T4, SARS-CoV-2 kappa variant B.1.617.1/3 …. Nature of the experiment: RBD-ACE2 competition ELISA. The arrangement: unit not given beside the values.
Experiment [19] deals with SARS-CoV-2 delta plus variant RBD (SARS-CoV-2). Nature of the experiment: RBD-ACE2 competition ELISA. The arrangement: unit not given beside the values.
Experiment [20] deals with T2, SARS-CoV-2 delta variant B.1.617.2/3 …. The experiment in a line: RBD-ACE2 competition ELISA. The arrangement: unit not given beside the values.
The target of experiment [21] is T1, SARS-CoV-2 spike, Delta variant …. Nature of the experiment: cell-based or functional assay. The source holds these as a separate data set.
In experiment [22] the target is T3, SARS-CoV-2 Spike ectodomain (tri-S), …. Nature of the experiment: ELISA.
The target is the same in experiment [23]. Nature of the experiment: infrared immunoblot on heat-denatured tri-S.

A value given as a limit tells only on which side of the number the result lay.

B1: CB6 (parental IgG1 version) (antibody, V domains shown)
VH: EVQLVESGGGLVQPGGSLRLSCAASGFTVSSNYMSWVRQAPGKGLEWVSVIYSGGSTFYADSVKGRFTISRDNSMNTLFLQMNSLRAEDTAVYYCARVLPMYGDYLDYWGQGTLVTVSS
VL: not shown
On to B1, for which the “IC50, in vitro neutralisation” value in experiment [1] and in [2] was greater than 25 nM each time.

B2: LY-CoV555 (parental IgG1 version) (antibody, V domains shown)
VH: QVQLVQSGAEVKKPGSSVKVSCKASGGTFSNYAISWVRQAPGQGLEWMGRIIPILGIANYAQKFQGRVTITADKSTSTAYMELSSLRSEDTAVYYCARGYYEARHYYYYYAMDVWGQGTAVTVSS
VL: not shown
B2: the “IC50, in vitro neutralisation” value in experiment [3], in experiment [1] and in experiment [2] was greater than 25 nM in each case.

B3: Cv2.5179 (recombinant human IgG1) (antibody, V domains shown)
VH: QVQLVQSGPEVKKPGTSVKVSCKASGFTFTSSAVQWVRQARGQRLEWIGWIVVGSGNTNYAQKFQERVTITRDMSTSTAYMELSSLRSEDTAVYYCAAPHCSSTSCYDAFDIWGQGTMVTVSS
VL: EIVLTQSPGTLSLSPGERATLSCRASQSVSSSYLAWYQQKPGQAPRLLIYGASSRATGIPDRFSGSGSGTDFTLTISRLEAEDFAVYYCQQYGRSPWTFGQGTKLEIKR
notes: also called Cv2.5179 IgG
Turning to B3, the “IC50 (read off the curve)” value in experiment [4] is roughly 0.4 µg/mL. For the same molecule, the “AUC (Binding)” value came out at 11 in experiment [5]; 11 in experiment [6]; 12 in experiment [7]; 11 in [8]; 12 in experiment [9]; 12 in [10]. Besides, in experiment [11], the “AUC (Binding)” value stood at 12. Besides, the AUC in [12] worked out at 12; in [13], 3; in [14], 2. Further, the “AUC (Blocking)” value in experiment [15] was found to be 64; in experiment [16], 49; in [17], 50; in experiment [18], 114; in experiment [19] it was 144; in experiment [20], 115. Besides, the “IC50, S-Fuse neutralisation” value in experiment [21] was determined as 0.0052 µg/mL.

B4: CV2.1174 (antibody, V domains shown)
VH: EVQLVESGPEVKKPGTSVKVSCKASGFTFTRSAMQWVRQARGQRLEWIGWIVVGSGNTNYAQKFQERVTITRDMSTSTAYMELSSLRSEDTAVYYCAARQDYYYYGMDVWGQGTTVTVSS
VL: DIQMTQSPSSLSASVGDRVTITCRASQGMSNSLDWDQQKPGKAPKLLLYAASRLKSGVPSRFSGSGSGTDYTLTISSLQPEDFATYYCQQYYSDPPKTFGQGTKVEIK
Regarding B4, the binding result in experiment [22] is recorded as “no binding (tested: 10 µg/ml)”.

B5: Cv2.3132 (IgG) (antibody, V domains shown)
VH: EVQLVESGGGLVKPGGSLRLSCAASGFTFSDYYMSWIRQAPGKGLEWVSYISSSGSVQYYADSVKGRFTISRDNAENSLYLQMNSLRAEDTAVYYCARYYYDSSGYWKRLDYWGQGTLVTVSS
VL: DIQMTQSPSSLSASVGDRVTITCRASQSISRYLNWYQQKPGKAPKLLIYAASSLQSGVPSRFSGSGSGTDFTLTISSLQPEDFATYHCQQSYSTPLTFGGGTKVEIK
As to B5, the binding result in [23] is “binds”.

B6: CV2.1388 (antibody)
heavy chain: QVQLVQSGPEVKKPGTSVKVSCKASGFTFTSSAVQWVRQARGQRLEWIGWIVVGSGDTNYAQKFQERVTITRDMSTSTAYMELSSLRSEDTAVYYCATDRQAGSRTYYFPGEGWFDPWGQGTLVTVSS
light chain: QSVLTQPPSVSAAPGQKVTISCSGSTTNIGNNYVSWYQRLPGTAPKLLIYDNNKRPSGIPDRFSGSKSGTSATLGITGLQTGDEADYYCGTWDSSLSGVVFRRRDQADRPR
Take B6: the binding result in experiment [22] is on record as “no binding (tested: 10 µg/ml)”.

Source of the values: patent US20240336672A1 (INSTITUT PASTEUR, published 2024).
